Results reported in patent publication US20250376535A1 (BEIJING STARMAB BIOMED TECHNOLOGY, published 2025).

T1: recombinant human IL-22 (human, UniProt Q9GZX6 34-179)
T1 construct: also called rh-IL22
T1 sequence: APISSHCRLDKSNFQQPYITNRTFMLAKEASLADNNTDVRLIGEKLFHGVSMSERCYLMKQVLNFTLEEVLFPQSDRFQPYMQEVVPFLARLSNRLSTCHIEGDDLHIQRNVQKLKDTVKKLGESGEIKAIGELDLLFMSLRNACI

B1: pgEG-SX52 (VHH, not shown: small tags and cut ends)
VHH: QVQLVESGGGLVKAGKSLRLSCAASVSSFDTYTMGWYRQAPGKQREQVAIITPGAGTHYADSVKGRFTISRDNAKNTVYLQMSSLKLEDTAVYYCKARHRITGYDYWGQGTQVTVSS
B2: pgEG-SX9 (VHH, not shown: small tags and cut ends)
VHH: QVQLVESGGGLVQAGGSLRLSCAASVSGSALSNMAWYRQRPGNQRELVAHITFDNFTNYADSVKGRFTISRDNVKNTVDLQMSSLKPEDTAVYYCNARHFFGDNYWGKGTLVTVSS
B3: pgEG-SX39 (VHH, not shown: small tags and cut ends)
VHH: QVQVAESGGGLVQAGESLRLSCTASGSISTINAVRWYRQTPGKQREFVAYISTDGGTDYADPVKGRFTISRDNAKNTWFLQMNSLKPEDTGVYMCNVVVTPYAYWGQGTQVTVSS
B4: pgEG-SX55 (VHH, not shown: small tags and cut ends)
VHH: QVQLVESGGGLVQPGGSLRLSCAGTGLIFTTYVMGWYRQAPGKQRELVAIVTNGGGTHYADFVKGRFTISRDNAKNTVSLQMNLLKPEDTAVYYCNARHLVRPGTNDYWGQGTLVTVSS
B5: pgEG-SX20 (VHH, not shown: small tags and cut ends)
VHH: QVQLVESGGGLVQAGGSLRLSCAGARSAFSIKPMTWYRQAPGKERELVAYFNSGGSTNYADSVKGRFTISRDNAKNTMYLQMNNLKPEDTAVYYCNAIPPLGSWGQGTQVTVSS
B6: pgEG-SX56 (VHH, not shown: small tags and cut ends)
VHH: QVQLVESGGGFVQAGGSLRLSCAASGRFLSIADMDWYRRVPGKQRELVASITRAGDTALEDSVKGRFTISRDNAKNTVHLQMNSVKPEDTAVYYCRADVTRSGTPYFEVWGQGTLVTVSS
B7: pgDD40-HZ-28 (VHH, not shown: small tags and cut ends)
VHH: EVQLVESGGGLVQAGGSLRLSCVASERTFTPVRMGWFRQAPGKEREIVAAITWSDGSTYYADAVKGRFTISRDNALNAVYLQIDSLKPEDTAVYVCAASTSPYSTHLQFRYWGQGTQVTVSS
B8: pgDD40-HZ-47 (VHH, not shown: small tags and cut ends)
VHH: QVQLVESGGGLVQPGGSMRLSCSASGFSISVYWMSWVRRAPGKGLEWVSNLGADGVTAQYSDSVKGRFTIARDTAKNTLYLQMNSLKPEDTAVYYCNAMTGMNPAEEEAYWGQGTQVTVSS
B9: pgDD40-HZ-15 (VHH, not shown: small tags and cut ends)
VHH: EVQLVESGGGLVQAGGSLRLSCAASGFTFDDYAIGWFRQAPGKEREGVSCLSKNVGNTYYADSVKGRFTISSDNAKNTVYLQMNSLKPEDTAVYYCAKGSGYGCYDFPRYAVWGQGTQVTVSS
B10: pgDD40-SZ-7 (VHH, not shown: small tags and cut ends)
VHH: QVQLVESGGALAQPGGSLRLSCEASATVRSVNAMAWYRQGPGKPRELVANITSGDTTYYADSVKGRFTLSREGARNTVYLQMNSLKPEDTAVYQCNIHYTSTGGIRRDYWGRGTQVTVSS
B11: IL22-A3 (VHH)
VHH: QVQLVESGGGLVQPGGSLRLSCEASGRTFSSVSMGWFRQAPGKERVIVAAADWSGTTYYTGSLKGRFTISRDNAKNMVYLQMNSLKPEDTAVYYCAASDPRRSAYKYWGQGTQVTVSS
notes: Llama single domain antibody with C-terminal His-tag; not shown: C-terminal His-tag
B12: IL22-354 (VHH)
VHH: EVQLVESGGGLVQPGGSLRLSCAASGFTLDYYAIAWFRQAPGKEREGVSCISTSDGSTYYADSVKGRFTISRDNAKNTVYLQMNSLKPEDTAVYYCAADPSPFFVAPLVDYEYDYWGQGTQVTVSS
notes: as for B11
B13: Humanized IL22-223 (VHH)
VHH: EVQLVESGGGLVQPGGSLRLSCAASGFTLNYYVMSWFRQAPGKEREGVSAISSSDGSTYYADSVKGRFTISRDNSKNTLYLQMNSLRAEDTAVYYCAADLRAYYTVPLWASEYDYWGQGTVSS
notes: not shown: C-terminal His-tag
B14: IL22-223 (VHH)
VHH: QVQLVESGGGLAQPGGSLRLSCAVSGFTLNYYVIAWFRQAPGKEREGVSCISSSDGSTYYTDSVKGRFTISRDNAKNTVYLQMDSLKPEDTAVYYCAADLRAYYTVPLWASEYDYWGQGTQVTVSS
notes: as for B11
B15: MSA2 (VHH)
VHH: EVQLVESGGGLAQAGGFLRLSCADSGHSFSLYAMAWFRQTPEKEREFVAAISSSGGDTYYADSVKGRFTISRENAKNTVYLQMDSLKPGDTAVYFCAGNYYTSQLMRGMYEHWGQGTQVTVSS
notes: Llama single domain antibody with C-terminal His-tag, made in HEK293; not shown: C-terminal His-tag
B16: MSA6 (VHH)
VHH: QVQLVESGGGLVQPGGSLRLSCAASGLPSRVMGWFRQAAGKEREFVASISVSGIDTRYGDSVKGRFTISRDNTKSSLYLQMNSLKPEDTAVYYCAATDGQGNYRHWGQGTQVTVSS
notes: as for B15

Target: T2, EGFR Fc (human, UniProt P00533 25-645)
T2 construct: also called EGFR-hFc; recombinant human EGFR-Fc
Assay: ELISA, EGFR Fc coated
Description: (§1) After four rounds of washing with PBST, the plate was incubated with detecting antibody anti-his-HRP (1:4000 dilution) 100 μl per well for one hour with shaking at 60 rpm. The plate was developed with 100 μL of TMB per well in the dark and then stopped by 50 μL of stop solution per well. […] Data was analyzed using GraphPad Prisma 9.1.

Row | EC50 [nM] | Binder
1 | 0.105 | B1
2 | 0.0278 | B2
3 | 2760 | B3
4 | 0.237 | B4
5 | 0.025 | B5
6 | 0.044 | B6

Target: T3, recombinant human CD40-Fc (human, UniProt P25942 21-193)
T3 construct: also called rh-CD40-Fc; CD40-hFc
Assay: ELISA, CD40-Fc coated, VHH at 1000 nM
Description: (§2) After four times washing with PBST, the plate was incubated with detecting antibody anti-his-HRP (1:4000 dilution) 100 μl per well for one hour with shaking at 60 rpm. The plate was developed with 100 μL of TMB per well in the dark and then stopped by 50 μL of stop solution per well.

T3 sequence (P25942 21-193): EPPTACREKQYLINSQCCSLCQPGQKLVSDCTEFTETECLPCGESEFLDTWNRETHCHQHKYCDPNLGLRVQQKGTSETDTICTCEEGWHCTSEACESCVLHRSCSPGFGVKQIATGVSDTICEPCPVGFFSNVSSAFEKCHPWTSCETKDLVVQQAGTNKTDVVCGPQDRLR

Row | OD450 | Binder
7 | 0.419 | B7
8 | 0.569 | B8
9 | 0.479 | B9
10 | 1.67 | B10

Target: T3, recombinant human CD40-Fc
Assay: ELISA, CD40-Fc coated, VHH at 0.013 nM
Description: as §2

Row | OD450 | Binder
11 | 0.075 | B7
12 | 0.055 | B8
13 | 0.063 | B9
14 | 0.092 | B10

Target: T2, EGFR Fc
Assay: ELISA, EGFR Fc coated, VHH at 0.0032 nM
Description: as §1

Row | OD450 | Binder
15 | 0.196 | B1
16 | 0.237 | B2
17 | 0.075 | B3
18 | 0.125 | B4
19 | 0.358 | B5
20 | 0.409 | B6

Target: T2, EGFR Fc
Assay: ELISA, EGFR Fc coated, VHH at 0.08 nM
Description: as §1

Row | OD450 | Binder
21 | 1.07 | B1
22 | 1.84 | B2
23 | 0.068 | B3
24 | 0.5 | B4
25 | 1.95 | B5
26 | 1.15 | B6

Target: T3, recombinant human CD40-Fc
Assay: ELISA, CD40-Fc coated, VHH at 0.0026 nM
Description: as §2

Row | OD450 | Binder
27 | 0.061 | B7
28 | 0.06 | B8
29 | 0.064 | B9
30 | 0.056 | B10

Target: T2, EGFR Fc
Assay: ELISA, EGFR Fc coated, VHH at 0.016 nM
Description: as §1

Row | OD450 | Binder
31 | 0.32 | B1
32 | 0.903 | B2
33 | 0.072 | B3
34 | 0.193 | B4
35 | 1.13 | B5
36 | 0.569 | B6

Target: T2, EGFR Fc
Assay: ELISA, EGFR Fc coated, VHH at 10 nM
Description: as §1

Row | OD450 | Binder
37 | 2.44 | B1
38 | 2.4 | B2
39 | 0.093 | B3
40 | 2.42 | B4
41 | 2.6 | B5
42 | 1.54 | B6

Target: T3, recombinant human CD40-Fc
Assay: ELISA, CD40-Fc coated, VHH at 0.064 nM
Description: as §2

Row | OD450 | Binder
43 | 0.07 | B7
44 | 0.053 | B8
45 | 0.062 | B9
46 | 0.088 | B10

Target: T3, recombinant human CD40-Fc
Assay: ELISA, CD40-Fc coated, VHH at 8 nM
Description: as §2

Row | OD450 | Binder
47 | 0.059 | B7
48 | 0.063 | B8
49 | 0.061 | B9
50 | 1.6 | B10

Target: T3, recombinant human CD40-Fc
Assay: ELISA, CD40-Fc coated, VHH at 1.6 nM
Description: as §2

Row | OD450 | Binder
51 | 0.062 | B7
52 | 0.056 | B8
53 | 0.062 | B9
54 | 1.01 | B10

Target: T2, EGFR Fc
Assay: ELISA, EGFR Fc coated, VHH at 500 nM
Description: as §1

Row | OD450 | Binder
55 | 2.23 | B1
56 | 2.2 | B2
57 | 0.503 | B3
58 | 2.24 | B4
59 | 2.53 | B5
60 | 1.5 | B6

Target: T1, recombinant human IL-22
Assay: BLI (Octet), His-tagged VHH on HIS1K tips, IL-22 in solution
Description: Bio-Layer Interferometry (BLI), a label-free technology was used for measuring the binding kinetics of positive llama single domain antibodies. Affinity measurements were performed with Octet QKe equipped with Anti-Penta-His capture (HIS1K) biosensor tips (ForteBio®). The assay was performed at 30 C in 1×PBS buffer (Gibco®, PBS pH7.2). Samples were agitated at 1000 rpm. Prior to analysis, sensors were humidified for 15 minutes. Purified single domain antibodies was tested for its binding capacity with HIS1K sensor tips. Tips were loaded using 20 μg/ml of single domain antibodies. Loading proceeded for 300 s resulting in capture levels of between 1.8 and 2 nm. […] Association was initiated and monitored for 200 s, after which tips were transferred to 1×PBS buffer without Factor protein (Gibco, PBS pH 7.2), in order to monitor dissociation. Sensor data was collected throughout the experiments, processed, and analyzed using the Octet data analysis software 7 (Forte Bio).

Row | Kd [nM] | koff [s⁻¹] | kon [M⁻¹ s⁻¹] | Binder
61 | 0.817 | 0.000405 | 496000 | B11
62 | 0.366 | 0.000184 | 503000 | B12
63 | 1.07 | 0.000547 | 509000 | B13
64 | 1.29 | 0.00036 | 278000 | B14

Target: T2, EGFR Fc
Assay: ELISA, EGFR Fc coated, VHH at 2 nM
Description: as §1

Row | OD450 | Binder
65 | 2.34 | B1
66 | 2.64 | B2
67 | 0.073 | B3
68 | 2.22 | B4
69 | 2.61 | B5
70 | 1.46 | B6

Target: T3, recombinant human CD40-Fc
Assay: ELISA, CD40-Fc coated, VHH at 40 nM
Description: as §2

Row | OD450 | Binder
71 | 0.067 | B7
72 | 0.066 | B8
73 | 0.076 | B9
74 | 1.67 | B10

Target: T2, EGFR Fc
Assay: ELISA, EGFR Fc coated, VHH at 0.4 nM
Description: as §1

Row | OD450 | Binder
75 | 2 | B1
76 | 2.4 | B2
77 | 0.067 | B3
78 | 1.61 | B4
79 | 2.67 | B5
80 | 1.32 | B6

Target: T2, EGFR Fc
Assay: ELISA, EGFR Fc coated, VHH at 50 nM
Description: as §1

Row | OD450 | Binder
81 | 2.33 | B1
82 | 2.28 | B2
83 | 0.147 | B3
84 | 2.2 | B4
85 | 2.67 | B5
86 | 1.47 | B6

Target: T4, human serum albumin (human, UniProt P02768 25-609)
T4 construct: also called HSA
Assay: BLI (Gator), His-tagged VHH on anti-His sensor, HSA 100 nM in solution
Description: Kinetic binding analysis of MSA VHHs were performed with Gator Prime system equipped with analyze software. […] The experiments were done at 30° C. Prior to analysis, sensors were socked in Q buffer for 600 sec with shaking at 1000 rpm, and then 2 μM of HIS tagged MSA VHHs were loaded to Anti-His sensors with shaking at 400 rpm for 120 sec. Loaded sensors were transferred into Q buffer for 60 sec. Association of HSA or MSA at 100 nM was initiated and monitored for 120-180 sec with shaking at 1000 rpm, and finally dissociation in Q buffer for 120-180 sec with 1000 rpm shaking. Software V2.0 (Gator Bio) was used for data analysis. The on-rate (Kₒₙ) and off-rate (Kd) were determined by fitting of the association and dissociation phases of each sample. The mathematical model used assumes a 1:1 stoichiometry, fitting only one analyte in solution binding to one binding site on the surface. The equilibrium dissociation constant (KD), a measure for affinity, was then calculated as the ratio of Kd and Kₒₙ.

Row | koff [s⁻¹] | Kd [nM] | kon [M⁻¹ s⁻¹] | Binder
87 | 0.0225 | – | – | B15
88 | 0.00125 | 20.9 | 59800 | B16

Target: T3, recombinant human CD40-Fc
Assay: ELISA, CD40-Fc coated, VHH at 0.32 nM
Description: as §2

Row | OD450 | Binder
89 | 0.066 | B7
90 | 0.063 | B8
91 | 0.06 | B9
92 | 0.332 | B10

Target: T3, recombinant human CD40-Fc
Assay: ELISA, CD40-Fc coated, VHH at 200 nM
Description: as §2

Row | OD450 | Binder
93 | 0.123 | B7
94 | 0.126 | B8
95 | 0.166 | B9
96 | 1.62 | B10

Target: T5, Human CD40 antigen (recombinant, BLI) (human, UniProt P25942 21-193)
T5 construct: also called rh-CD40
Assay: BLI, VHH-His on anti-His tips, human CD40 in solution;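 note: kinetics measured at 30 °C in PBS pH 7.2, association tracked for 200 s, then dissociation followed in PBS lacking CD40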
Description: Bio-Layer Interferometry (BLI) kinetic binding analysis. […] Affinity measurements were performed with Gator equipped with Anti-Penta-His capture (HIS1K) biosensor tips. The assay was performed at 30° C. in 1×PBS buffer (Gibco®, PBS pH7.2). Samples were agitated at 1000 rpm. Prior to analysis, sensors were humidified for 15 min. […] Sensor data was collected throughout the experiments, processed, and analyzed using the Gator data analysis software.
Briefly, purified anti-CD40 VHH was tested for its binding capacity with HIS1K sensor tips. Tips were loaded using 20 μg/ml of anti-CD40 VHH. Loading proceeded for 300 sec resulting in capture levels of between 1.8 and 2 nm. […] Association was initiated and monitored for 200 sec, after which tips were transferred to 1×PBS buffer without CD40 protein in order to monitor dissociation.

T5 sequence (P25942 21-193 limits assumed): as the sequence (P25942 21-193) above

Row | Kd [nM] | koff [s⁻¹] | kon [M⁻¹ s⁻¹] | Binder
97 | 4.06 | 0.00372 | 917000 | B7
98 | 0.469 | 0.000625 | 1.33e+06 | B8
99 | 3.12 | 0.0011 | 351000 | B9
100 | < 0.001 | 1e-06 | 721000 | B10
